Assay results from patent US8147844 (Genentech, dated 2012).
Values joined by “and” are separate entries in the source; they are usually repeats but may differ in a detail not shown here. Identical values can stand only once.

Columns and labels:
[1] = target: T1, mpl-IgG (chimeric molecule comprising the entire extracellular domain of human mpl, amino acids 1-491, and … (human, UniProt P40238 26-491)); assay: mpl receptor based ELISA (captured mpl-IgG)
T1 construct: range 1-491; Expressed in 293 cells; no cleavage site is stated; Used immobilized on Ultralink or NHS-superose, captured on ELISA plates, or soluble; also called soluble mpl-IgG; soluble human mpl-IgG; not shown: Fc region of a human IgG1 molecule
T1 sequence (looked up): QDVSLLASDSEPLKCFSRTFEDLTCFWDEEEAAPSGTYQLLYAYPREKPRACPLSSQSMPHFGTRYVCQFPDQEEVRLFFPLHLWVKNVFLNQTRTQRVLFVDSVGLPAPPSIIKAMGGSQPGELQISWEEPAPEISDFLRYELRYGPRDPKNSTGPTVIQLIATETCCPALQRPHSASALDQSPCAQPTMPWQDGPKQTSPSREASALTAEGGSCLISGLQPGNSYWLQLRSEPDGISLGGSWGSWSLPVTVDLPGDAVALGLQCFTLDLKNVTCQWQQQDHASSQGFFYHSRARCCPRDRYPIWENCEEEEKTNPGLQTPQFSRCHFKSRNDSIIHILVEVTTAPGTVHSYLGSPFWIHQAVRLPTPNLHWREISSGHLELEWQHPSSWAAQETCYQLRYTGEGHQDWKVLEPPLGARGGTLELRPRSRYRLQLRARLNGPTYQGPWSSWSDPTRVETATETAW

[2] = target: T1, mpl-IgG (chimeric molecule comprising …); assay: mpl receptor-based ELISA: mpl-IgG captured on an anti-human IgG (Fc) plate, bound TPO detected with biotinylated rabbit antibodies to TPO155

B1: TPO (1-155) with authentic N-terminus, generated by thrombin cleavage of T-H8MLF (ligand)
chain: SPAPPACDLRVLSKLLRDSHVLHSRLSQCPEVHPLPTPVLLPAVDFSLGEWKTQMEETKAQDILGAVTLLLEGVMAARGQLGPTCLSSLLGQLSGQVRLLLGALQSLLGTQLPPQGRTTAHKDPNAIFLSFQHLLRGKVRFLMLVGGSTLCVRRA
notes: Only very minor (<5%) internal cleavage occurred; also called cleaved variant (3)
- EC50 [1]: 0.002 µg/mL to 0.004 µg/mL (2×) and 0.12 nM and 0.24 nM

B2: TPO (Met^-1 1-153), refolded, produced in E. coli (ligand)
chain: MSPAPPACDLRVLSKLLRDSHVLHSRLSQCPEVHPLPTPVLLPAVDFSLGEWKTQMEETKAQDILGAVTLLLEGVMAARGQLGPTCLSSLLGQLSGQVRLLLGALQSLLGTQLPPQGRTTAHKDPNAIFLSFQHLLRGKVRFLMLVGGSTLCVR
modifications: non-glycosylated; disulfides between cysteines 1-4 and 2-3
notes: Encoded by plasmid pMP210-1
- EC50 [2]: 0.0019 µg/mL and 0.12 nM
